These results are taken from PMC2696799 (European journal of immunology, 2009).

A value given as a limit tells only on which side of the number the result lay.

Data set [1] concerns the target CD200R ECD (Mus musculus) (UniProt Q9ES57). Conditions: cited from earlier work.
In data set [2] the target is CD200RLa ECD (Mus musculus) (UniProt Q6XJV4). The note with it: cited from earlier work.
For the next data set, the target named is CD47 ECD (Homo sapiens) (UniProt Q08722). Conditions: cited from earlier work.
CD47 ECD (Homo sapiens), sequence (Q08722 19-323): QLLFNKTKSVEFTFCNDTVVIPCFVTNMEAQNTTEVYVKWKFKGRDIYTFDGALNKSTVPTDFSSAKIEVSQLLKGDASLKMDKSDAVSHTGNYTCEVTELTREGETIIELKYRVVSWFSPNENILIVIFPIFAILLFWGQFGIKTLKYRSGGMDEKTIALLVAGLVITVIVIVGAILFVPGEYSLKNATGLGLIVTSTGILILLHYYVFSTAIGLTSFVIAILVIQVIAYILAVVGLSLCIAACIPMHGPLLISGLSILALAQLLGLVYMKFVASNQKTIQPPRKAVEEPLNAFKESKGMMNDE
Data set [3] has as its target CD200R ECD (Homo sapiens) (UniProt Q8TD46). The note with it: cited from earlier work.
The target in a further data set is CD58 ECD (Homo sapiens) (UniProt P19256). The note with it: cited from earlier work.
CD58 ECD (Homo sapiens), sequence (P19256 29-215): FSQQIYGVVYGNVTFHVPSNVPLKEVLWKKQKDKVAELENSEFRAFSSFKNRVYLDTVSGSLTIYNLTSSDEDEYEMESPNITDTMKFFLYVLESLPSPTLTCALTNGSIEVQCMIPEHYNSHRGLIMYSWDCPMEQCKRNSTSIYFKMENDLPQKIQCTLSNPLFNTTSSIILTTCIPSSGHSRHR
A further data set concerns the target T1, mCD200R, immobilised (mouse, UniProt Q9ES57 26-238).
T1 sequence (looked up): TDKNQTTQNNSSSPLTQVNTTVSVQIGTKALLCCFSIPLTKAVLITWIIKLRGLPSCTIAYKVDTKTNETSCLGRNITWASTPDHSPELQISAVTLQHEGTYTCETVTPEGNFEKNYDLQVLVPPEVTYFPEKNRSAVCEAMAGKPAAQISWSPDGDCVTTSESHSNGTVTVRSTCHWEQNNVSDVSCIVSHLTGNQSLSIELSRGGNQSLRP
Kind of data set: SPR. For orientation: Surface plasmon resonance follows binding to a sensor surface in real time, without labels.

For data set [4], the target named is T2, mCD200RLa/rCD4d3+4, immobilised (mouse, UniProt Q6XJV4 26-241, biotin).
T2 sequence (looked up): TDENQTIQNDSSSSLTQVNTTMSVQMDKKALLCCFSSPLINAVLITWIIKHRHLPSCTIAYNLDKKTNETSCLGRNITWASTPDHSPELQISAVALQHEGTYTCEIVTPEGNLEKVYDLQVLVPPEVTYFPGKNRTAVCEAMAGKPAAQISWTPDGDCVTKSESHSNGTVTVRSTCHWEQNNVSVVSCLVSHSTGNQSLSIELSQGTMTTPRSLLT
Kind of data set: SPR.

In data set [5] the target is T3, Acid-soluble human collagen type I (from human placenta) (human, UniProt P02452 162-1218; P08123 80-1119). In words: SPR.
T3 sequence (P02452 162-1218, chain 1 of 2): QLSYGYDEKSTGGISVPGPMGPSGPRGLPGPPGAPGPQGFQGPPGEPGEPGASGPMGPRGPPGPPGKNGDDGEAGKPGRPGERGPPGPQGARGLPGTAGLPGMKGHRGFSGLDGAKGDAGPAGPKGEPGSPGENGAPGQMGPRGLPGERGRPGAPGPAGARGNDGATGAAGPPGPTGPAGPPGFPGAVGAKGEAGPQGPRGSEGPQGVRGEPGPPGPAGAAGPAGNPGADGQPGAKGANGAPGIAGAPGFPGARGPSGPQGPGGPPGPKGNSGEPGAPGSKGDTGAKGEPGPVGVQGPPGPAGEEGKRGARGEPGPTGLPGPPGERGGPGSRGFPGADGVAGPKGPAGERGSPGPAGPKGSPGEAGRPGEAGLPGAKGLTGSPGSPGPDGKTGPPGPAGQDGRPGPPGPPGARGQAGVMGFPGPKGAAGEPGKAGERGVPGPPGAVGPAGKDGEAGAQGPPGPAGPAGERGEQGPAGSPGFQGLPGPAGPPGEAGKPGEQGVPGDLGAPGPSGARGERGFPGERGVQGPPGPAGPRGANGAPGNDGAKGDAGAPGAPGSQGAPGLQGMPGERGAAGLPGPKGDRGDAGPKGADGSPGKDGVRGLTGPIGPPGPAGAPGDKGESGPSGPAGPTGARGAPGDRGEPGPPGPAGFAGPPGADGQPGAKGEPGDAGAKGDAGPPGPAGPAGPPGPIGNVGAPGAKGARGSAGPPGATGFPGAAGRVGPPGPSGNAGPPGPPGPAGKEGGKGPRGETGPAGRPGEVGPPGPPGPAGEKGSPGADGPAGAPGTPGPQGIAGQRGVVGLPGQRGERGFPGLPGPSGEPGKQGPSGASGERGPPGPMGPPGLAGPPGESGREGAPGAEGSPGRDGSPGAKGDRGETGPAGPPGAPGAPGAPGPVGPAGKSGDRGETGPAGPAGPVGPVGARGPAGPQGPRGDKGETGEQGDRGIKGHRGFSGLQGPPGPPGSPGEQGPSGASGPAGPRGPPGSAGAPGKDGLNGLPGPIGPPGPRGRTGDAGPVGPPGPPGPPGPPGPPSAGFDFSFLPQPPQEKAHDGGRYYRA
T3 sequence (P08123 80-1119, chain 2 of 2): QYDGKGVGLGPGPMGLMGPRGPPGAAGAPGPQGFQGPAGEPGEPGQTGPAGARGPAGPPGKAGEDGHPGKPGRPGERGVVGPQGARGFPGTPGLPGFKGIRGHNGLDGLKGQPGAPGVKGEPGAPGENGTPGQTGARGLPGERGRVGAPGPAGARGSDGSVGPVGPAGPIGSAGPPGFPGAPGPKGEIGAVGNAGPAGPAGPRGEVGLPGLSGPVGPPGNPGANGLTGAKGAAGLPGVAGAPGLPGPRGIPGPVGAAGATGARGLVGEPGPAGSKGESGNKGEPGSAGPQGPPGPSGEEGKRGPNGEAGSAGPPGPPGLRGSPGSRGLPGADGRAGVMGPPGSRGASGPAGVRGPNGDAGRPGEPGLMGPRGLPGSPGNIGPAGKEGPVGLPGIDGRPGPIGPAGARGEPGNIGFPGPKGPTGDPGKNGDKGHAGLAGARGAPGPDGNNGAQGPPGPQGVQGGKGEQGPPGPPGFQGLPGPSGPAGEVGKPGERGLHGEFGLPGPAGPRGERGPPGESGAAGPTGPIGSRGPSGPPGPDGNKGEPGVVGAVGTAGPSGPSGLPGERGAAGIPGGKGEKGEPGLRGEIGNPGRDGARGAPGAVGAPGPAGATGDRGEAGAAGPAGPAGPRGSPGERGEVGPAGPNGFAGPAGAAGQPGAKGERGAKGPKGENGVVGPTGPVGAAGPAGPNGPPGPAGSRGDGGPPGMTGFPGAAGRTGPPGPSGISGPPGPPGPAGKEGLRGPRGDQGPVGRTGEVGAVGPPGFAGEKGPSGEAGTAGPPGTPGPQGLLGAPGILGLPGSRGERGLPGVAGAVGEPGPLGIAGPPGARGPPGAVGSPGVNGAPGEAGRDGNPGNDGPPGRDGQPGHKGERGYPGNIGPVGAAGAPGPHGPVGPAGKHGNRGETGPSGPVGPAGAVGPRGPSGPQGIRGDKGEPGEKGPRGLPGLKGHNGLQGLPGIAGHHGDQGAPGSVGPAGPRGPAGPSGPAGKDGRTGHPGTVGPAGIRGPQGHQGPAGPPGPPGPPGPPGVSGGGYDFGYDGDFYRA
In data set [6] the target is (GPO)10 triple-helical peptide, GCO(GPO)10GCOG-NH2. In words: SPR.
The data set “SPR” deals with the molecule itself. Kind of data set: SPR.
Data set [7] concerns the target T3, Acid-soluble human collagen type I …. In words: SPR. This is another data set of the same source.

A word on the Kd: it is a measure of binding affinity in units of concentration.

CD200R ECD (Homo sapiens), sequence (Q8TD46 25-265): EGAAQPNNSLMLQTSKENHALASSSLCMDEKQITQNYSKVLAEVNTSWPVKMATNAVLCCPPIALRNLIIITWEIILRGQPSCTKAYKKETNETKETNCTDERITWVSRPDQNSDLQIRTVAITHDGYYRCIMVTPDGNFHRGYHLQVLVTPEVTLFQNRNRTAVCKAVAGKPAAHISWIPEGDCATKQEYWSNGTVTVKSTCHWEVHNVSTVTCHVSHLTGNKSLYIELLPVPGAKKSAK

CD200 ECD (from UniProt O54901): the Kd is 4 µM in [1] and > 500 µM in [2].
Consider SIRPα ECD (from UniProt P78324), for which the Kd in the data set with CD47 ECD (Homo sapiens) is 2 µM.
For the molecule CD200 ECD (from UniProt P41217), the Kd in data set [3] is 2 µM.
Turning to CD2 ECD (from UniProt P06729), the Kd in the data set with CD58 ECD (Homo sapiens) was 10 µM.

B1: mCD200/rCD4d3+4 coupled beads (domain or fragment, mouse, UniProt O54901 31-232, looked up)
chain: QVEVVTQDERKALHTTASLRCSLKTSQEPLIVTWQKKKAVSPENMVTYSKTHGVVIQPAYKDRINVTELGLWNSSITFWNTTLEDEGCYMCLFNTFGSQKVSGTACLTLYVQPIVHLHYNYFEDHLNITCSATARPAPAISWKGTGTGIENSTESHFHSNGTTSVTSILRVKDPKTQVGKEVICQVLYLGNVIDYKQSLDKG
modifications: biotin on the tag that can be biotinylated
For B1, the response was > 3000 RU with mCD200R, immobilised and > 3000 RU in [4].

B2: mLilrb4/rCD4d3+4, soluble monomeric (domain or fragment, mouse, UniProt Q64281 24-238, looked up)
chain: GHLPKPIIWAEPGSVIAAYTSVITWCQGSWEAQYYHLYKEKSVNPWDTQVPLETRNKAKFNIPSMTTSYAGIYKCYYESAAGFSEHSDAMELVMTGAYENPSLSVYPSSNVTSGVSISFSCSSSIVFGRFILIQEGKHGLSWTLDSQHQANQPSYATFVLDAVTPNHNGTFRCYGYFRNEPQVWSKPSNSLDLMISETKDQSSTPTEDGLETYQK
Regarding B2, the Kd was 39 µM in data set [5] and 33 µM in [6].

B3: mLilrb4/rCD4d3+4, biotinylated (on beads or on the chip) (domain or fragment, mouse, UniProt Q64281 24-238, looked up)
chain: GHLPKPIIWAEPGSVIAAYTSVITWCQGSWEAQYYHLYKEKSVNPWDTQVPLETRNKAKFNIPSMTTSYAGIYKCYYESAAGFSEHSDAMELVMTGAYENPSLSVYPSSNVTSGVSISFSCSSSIVFGRFILIQEGKHGLSWTLDSQHQANQPSYATFVLDAVTPNHNGTFRCYGYFRNEPQVWSKPSNSLDLMISETKDQSSTPTEDGLETYQK
modifications: biotin (biotin ligase BirA) on the sequence near the C terminus
B3 returned a response in the data set “SPR” of 1750 RU.

B4: mLAIR-1/rCD4d3+4, soluble monomeric (domain or fragment, mouse, UniProt Q8BG84 22-144, looked up)
chain: QEGSLPDITIFPNSSLMISQGTFVTVVCSYSDKHDLYNMVRLEKDGSTFMEKSTEPYKTEDEFEIGPVNETITGHYSCIYSKGITWSERSKTLELKVIKENVIQTPAPGPTSDTSWLKTYSIY
For B4, the Kd in data set [5] came to 18 µM; in data set [6], 10 µM.

B5: hLAIR-1/rCD4d3+4, biotinylated (on beads or on the chip) (domain or fragment, human, UniProt Q6GTX8 22-165, looked up)
chain: QEEDLPRPSISAEPGTVIPLGSHVTFVCRGPVGVQTFRLERDSRSTYNDTEDVSQASPSESEARFRIDSVREGNAGLYRCIYYKPPKWSEQSDYLELLVKESSGGPDSPDTEPGSSAGPTQRPSDNSHNEHAPASQGLKAEHLY
modifications: biotin (biotin ligase BirA) on the sequence near the C terminus
Consider B5, for which the response in data set [7] was 2700 RU.
